This is an account of results in patent US20060063917A1, “Selection of peptide ligands specific for baculovirus DNA-binding protein from the FliTrxTM random peptide display library” (Vista Biologicals Corporation, priority 2004, published 2006).

To fix the notation:
T1: His.Tag AcNPV DBP (Autographa californica nuclear polyhedrosis virus, UniProt P41430)
T1 construct: made in house; host or cells: E. coli BL21 (DE3)
T1 sequence (P41430 whole entry, looked up): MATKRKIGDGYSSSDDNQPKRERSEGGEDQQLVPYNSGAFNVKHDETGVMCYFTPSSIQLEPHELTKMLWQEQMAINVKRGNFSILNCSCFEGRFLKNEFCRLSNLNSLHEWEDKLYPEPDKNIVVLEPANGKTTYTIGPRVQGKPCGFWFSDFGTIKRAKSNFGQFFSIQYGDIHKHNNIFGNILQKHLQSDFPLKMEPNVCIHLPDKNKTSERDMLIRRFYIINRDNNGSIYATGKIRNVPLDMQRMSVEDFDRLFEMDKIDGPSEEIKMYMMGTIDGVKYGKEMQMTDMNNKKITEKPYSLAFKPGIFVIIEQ

B1: biotinylated synthesized peptide ligand No. 4 (SEQ ID NO. 6) (peptide)
peptide: GGGGRRSGGACP
modifications: also: biotinylated, position not given here
B2: FliTrx selected peptide ligand No. 2 (…), as FliTrx protein solution (peptide, part only; not given: FliTrx scaffold, part only)
chain, part: AMLRAACVVRSM
modifications: also: inserted in thioredoxin active-site loop of FliTrx fusion protein
B3: FliTrx selected peptide ligand No. 1 (…), as FliTrx protein solution (peptide, part only; not given: FliTrx scaffold, part only)
chain, part: AGRKGERGSVLQ
modifications: also: inserted in thioredoxin active-site loop of FliTrx fusion protein
B4: FliTrx selected peptide ligand No. 3 (…), as FliTrx protein solution (peptide, part only; not given: FliTrx scaffold, part only)
chain, part: ADYGKGLRRAMG
modifications: also: inserted in thioredoxin active-site loop of FliTrx fusion protein
B5: FliTrx selected peptide ligand No. 5 (…), as FliTrx protein solution (peptide, part only; not given: FliTrx scaffold, part only)
chain, part: PAQAQTRRRRPR
modifications: also: inserted in thioredoxin active-site loop of FliTrx fusion protein
B6: FliTrx selected peptide ligand No. 4 (…), as FliTrx protein solution (peptide, part only; not given: FliTrx scaffold, part only)
chain, part: GGGGRRSGGACP
modifications: also: inserted in thioredoxin active-site loop of FliTrx fusion protein

No end group written: not given here.

One assay deals with T1, His.Tag AcNPV DBP. As to the kind of experiment: ELISA for His.Tag AcNPV DBP screening using the FliTrx protein solution. The class given is binding, Autographa californica nucleopolyhedrovirus (AcNPV). The settings on record: wells coated with FliTrx protein solution of positive clones; 6 μg His.Tag AcNPV DBP added; mean of duplicate; mean O.D. of negative controls 0.14. The procedure: (§1) ELISA Protocols for His.Tag AcNPV DBP Screening
(§2) ELISA procedure was used for analysis of His.Tag AcNPV DBP as a target. The polystyrene microtitration plates (PolySorp™ Surface, Immuno™ Plate, Nunc) were used as the solid phase for the assay. All washes were performed four times with phosphate-buffered saline (PBS) containing 0.05% (V/V) Tween® 20 (PBS-T). The substrate solution for alkaline phosphatase (p-nitrophenyl phosphate, pNPP, 1 mg/ml, in 0.2 M Tris-HCl buffer, pH 7) was from Sigma, St. Louis, Mo. The reaction was stopped by the addition of 3 M NaOH (50 μl per well). The optical density at 405 nm (O.D.λ=405 nm) was measured in a microplate colorimeter (Molecular Devices, Thermo max Microplate Reader).
1. Using the FliTrx™ Protein Solution
Wells of the microtitration plates were coated with the FliTrx™ protein solutions obtained from induced culture cell of positive clones that contain the peptides recognized by His.Tag AcNPV DBP (50 μl per well). To account for plate binders, empty plates were used as negative controls. After incubation overnight at +4° C., the plates were washed, and the uncoated attachment sites on the plates were saturated by incubation for 1 hour at 37° C. with a solution of 2% nonfat dry milk in PBS-T: PBS-T-M (200 μl per well). The plates were then washed, and an aliquot of 100 μl (6 μg) of the purified His.Tag AcNPV DBP was added to both the target plate and the control plate. Plates were incubated for. 1 hour at 37° C. The plates were then washed, and 100 μl of a 1:1,000 dilution of mouse monoclonal Ig G1 antibody to penta-His™ (QIAGEN, Valencia, Calif.) in PBS-T-M were added. After being incubated again for 1 hour at 37° C., the plates were washed, and 100 μl of a 1:1,000 dilution of goat anti-mouse IgG conjugated to alkaline phosphatase (Bio-Rad Laboratories, Hercules, Calif.) were added. After being incubated again for 1 hour at 37° C., the plates were washed, and substrate solution (200 [l per well) was added. After incubation for 1 hour at 37° C., the reaction was stopped.
(In general: In an ELISA, binding on a coated surface is turned into a signal by an enzyme label.)
Take “ADYGKGLRRAMG (baculovirus) [Peptide ligand No. 3, FliTrx selected dodecapeptide ligand recognized by His.Tag AcNPV DBP]”: the “ELISA (O.D. λ = 405 nm), affinity for His.Tag AcNPV DBP” value turned out to be 1.11. The same measure, in the same setting: as for “AGRKGERGSVLQ (baculovirus) [Peptide ligand No. 1, FliTrx selected dodecapeptide ligand recognized by His.Tag AcNPV DBP]”, the figure is 1.21; as for “AMLRAACVVRSM (baculovirus) [Peptide ligand No. 2, FliTrx selected dodecapeptide ligand recognized by His.Tag AcNPV DBP]”, 0.56; as for “GGGGRRSGGACP (baculovirus) [Peptide ligand No. 4, FliTrx selected dodecapeptide ligand recognized by His.Tag AcNPV DBP]”, 1.13. The same measure, in the same setting: under “PAQAQTRRRRPR (baculovirus) [Peptide ligand No. 5, FliTrx selected dodecapeptide ligand recognized by His.Tag AcNPV DBP]” stands 1.35.

A further assay deals with T1, His.Tag AcNPV DBP. As to the kind of experiment: ELISA for His.Tag AcNPV DBP screening using the biotinylated synthesized peptide ligand. The settings on record: wells coated with 2 μg His.Tag AcNPV DBP; 25 μg biotinylated peptide added; negative control (empty) plate gave 0.30. The class given is binding, Autographa californica nucleopolyhedrovirus (AcNPV). The procedure: as §1, §2
2. Using the Biotinylated Synthesized Peptide Ligand
Wells of the microtitration plates were coated with 50 μl (2 μg) of purified His.Tag AcNPV DBP. To account for plate binders, empty plates were used as negative controls. After incubation overnight at +4° C., the plates were washed, and the uncoated attachment sites on the plates were saturated by incubation for 1 hour at 37° C. with PBS-T-M (200 μl per well). The plates were then washed, and an aliquot of 100 μl (25 μg) of the biotinylated synthesized peptide ligand No. 4 (SEQ ID NO. 6) (Invitrogen, Carlsbad, Calif.) was added to both the target plate and the control plate. Plates were incubated for 1 hour at 37° C. […]
As for “biotinylated synthesized peptide ligand No. 4: biotinylated synthesized peptide ligand No. 4 (SEQ ID NO. 6), GGGGRRSGGACP (also: biotinylated)”, the “mean O.D. value, target plate” value is “about 4.0”.

Another assay concerns the target recombinant His.Tag AcNPV DBP (Autographa californica nucleopolyhedrovirus DNA-binding protein) (Autographa californica nucleopolyhedrovirus (AcNPV)). The experiment in a line: ELISA: 2 ug His.Tag AcNPV DBP coated, 25 ug biotinylated peptide added, detected with anti-biotin BN-34-AP; empty negative control plate 0.30.
Details: not given
As for B1, the mean O.D. (405 nm) came out at 4 O.D.

The next assay has the same target. The experiment in a line: ELISA: FliTrx protein solution coated, 6 ug His.Tag AcNPV DBP added, detected with anti-penta-His and goat anti-mouse IgG-AP; mean of duplicate; negative controls (empty plates) 0.14.
Details: not given
Consider B2, for which the ELISA (O.D. λ = 405 nm) (O.D. λ = 405 nm) was found to be 0.56. Same read-out and setting: under B3 stands 1.21. With B4, the ELISA (O.D. λ = 405 nm) (O.D. λ = 405 nm) amounted to 1.11. On to B5, for which the ELISA (O.D. λ = 405 nm) (O.D. λ = 405 nm) is 1.35. Same read-out and setting: under B6 stands 1.13.
